For assay [1], the target named is T1, C-terminal IBP4 fragment (amino acids 157-258) (human, UniProt P22692 157-258).
T1 construct: also called CT-IBP4; C-term IBP4
T1 sequence: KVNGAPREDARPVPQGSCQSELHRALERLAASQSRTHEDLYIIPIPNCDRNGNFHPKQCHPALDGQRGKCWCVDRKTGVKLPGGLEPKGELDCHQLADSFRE
Put plainly: SPR (Biacore T100), mAb amine-coupled to C1 chip, CT-IBP4 injected, average. The procedure:
(§1) For this reason, anti-IBP4 antibodies were directly amine coupled using standard NHS/EDC coupling to a C1 sensor chip. Variant 5B3.G9 was coupled on two surfaces at 350 RU and the other at 150 RU. […] Antibodies were measured in a multi-cycle kinetic mode. Binding studies were performed in PBS buffer+0.05% P20+3 mM EDTA at 25 degrees C. CT-IBP4 was tested in a 3-fold concentration series up to 333 nM and injected at 100 uL/min for 3 minutes followed by a 10 minute dissociation phase. Surfaces were regenerated with 1/100 H3PO4 after each cycle. The antigen binding responses were processed by subtracting the signal from a reference surface with no antibody captured along with a buffer injection. The processed response data were globally fit to a simple 1:1 interaction using SCRUBBER (Biologic Software Pty Ltd). The antigen concentration series was tested three times over each surface, giving rise to the kinetic an affinity parameters summarized in the tables below.

For assay [2], the target named is T1, C-terminal IBP4 fragment (amino acids …). The assay is described as follows: SPR (Biacore T100), mAb amine-coupled to C1 chip, CT-IBP4 injected, 1:1 fit, first surface assay 1. The procedure:
as §1

Assay [3] has the same target. The assay is described as follows: SPR (Biacore T100), mAb amine-coupled to C1 chip, CT-IBP4 injected, 1:1 fit, first surface assay 2. The procedure: as §1
For assay [4] the target is unchanged. Put plainly: SPR (Biacore T100), mAb amine-coupled to C1 chip, CT-IBP4 injected, 1:1 fit, first surface assay 3. The procedure: as §1
For assay [5] the target is unchanged. The assay is described as follows: SPR (Biacore T100), mAb amine-coupled to C1 chip, CT-IBP4 injected, 1:1 fit, second surface assay 1. The procedure: as §1
Assay [6] shares this target. Put plainly: SPR (Biacore T100), mAb amine-coupled to C1 chip, CT-IBP4 injected, 1:1 fit, second surface assay 2. The procedure: as §1
Assay [7] has the same target. The assay is described as follows: SPR (Biacore T100), mAb amine-coupled to C1 chip, CT-IBP4 injected, 1:1 fit, second surface assay 3. The procedure:
as §1

Assay [8] shares this target. The assay is described as follows: SPR (Biacore T100), mAb amine-coupled to C1 chip, CT-IBP4 injected, 1:1 fit, assay 1. The procedure: as §1
For assay [9] the target is unchanged. Put plainly: SPR (Biacore T100), mAb amine-coupled to C1 chip, CT-IBP4 injected, 1:1 fit, assay 2. The procedure: as §1
Assay [10] has the same target. The assay is described as follows: SPR (Biacore T100), mAb amine-coupled to C1 chip, CT-IBP4 injected, 1:1 fit, assay 3. The procedure: as §1
The target in assay [11] is T2, human sex hormone-binding globulin (SHBG) (human, UniProt P04278 30-402, O-linked glycan at T36 (native glycosylated form)).
T2 construct: Purified human SHBG, the SHBG antigen of the SPR runs, or SHBG in human serum; also called SHBG protein
T2 sequence: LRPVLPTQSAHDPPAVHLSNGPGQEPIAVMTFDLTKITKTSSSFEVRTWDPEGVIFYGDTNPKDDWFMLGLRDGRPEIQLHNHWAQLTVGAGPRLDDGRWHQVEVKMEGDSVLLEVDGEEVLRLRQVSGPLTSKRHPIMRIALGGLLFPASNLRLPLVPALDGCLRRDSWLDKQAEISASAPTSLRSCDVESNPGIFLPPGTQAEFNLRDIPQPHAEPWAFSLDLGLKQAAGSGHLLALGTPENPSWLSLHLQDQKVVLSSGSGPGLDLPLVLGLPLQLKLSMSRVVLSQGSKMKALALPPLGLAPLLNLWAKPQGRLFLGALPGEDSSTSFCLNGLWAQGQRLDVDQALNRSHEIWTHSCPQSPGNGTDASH
Put plainly: Biacore, hybridoma supernatant.

Assay [12] concerns the target T2, human sex hormone-binding globulin …. Put plainly: SPR (Biacore T100), mAb captured on anti-mouse IgG, SHBG antigen injected, 1:1 fit, assay 1. The procedure:
(§2) Surface plasmon resonance experiments were performed on a BiacoreT100 to characterize the anti-SHBG and anti-IBP4 antibodies. Anti-mouse-IgG antibody was amine coupled to ˜500 RU on a C1 sensor chip using standard NHS/EDC activation. Test monoclonal antibodies were captured on the anti-mouse-IgG surfaces. The binding for the Sex Hormone Binding Globulin Antigen to anti-SHBG variant antibodies 4G10.F8 and 13C9.E5 were measured in a multi-cycle kinetic mode. Binding studies were performed in PBS buffer+0.05% P20+3 mM EDTA at 25 degrees C. SHBG was captured for 1 minute at 200 nM and regenerated with 1/100 H3PO4 after each cycle. SHBG was captured to similar densities on 2 different flow cells followed by an injection of the SHBG antigen in a 3-fold titration series up to 600 nM over the two surfaces. The responses were processed by subtracting the buffer injection to correct for drift. The data sets fit well to a simple 1:1 interaction model using SCRUBBER (Biologic Software Pty Ltd). The antigen concentration series was tested three times over each surface, giving rise to the kinetic an affinity parameters summarized below.

Assay [13] has the same target. Put plainly: SPR (Biacore T100), mAb captured on anti-mouse IgG, SHBG antigen injected, 1:1 fit, assay 2. The procedure: as §2
The target is the same in assay [14]. Put plainly: SPR (Biacore T100), mAb captured on anti-mouse IgG, SHBG antigen injected, 1:1 fit, assay 3. The procedure:
as §2

Assay [15] shares this target. Put plainly: SPR (Biacore T100), mAb captured on anti-mouse IgG, SHBG antigen injected, average of 3 assays. The procedure:
as §2

The target is the same in assay [16]. The assay is described as follows: SPR (Biacore T100), mAb captured on anti-mouse IgG, SHBG antigen injected, 1:1 fit, assay 3; assay 3. The procedure: as §2

B1: anti-IBP4 antibody clone variant 5B3.G9 (antibody, mouse IgG1, kappa)
heavy: EVQLQQSGPELVKPGASAKISCKASGYTFTDYYMNWVKQSHGKSLEWIGDINPNNGGSAYNQKFKGKATLTVDKSSSTAYMELRSLTSEDSAVYYCARWDGGFDYWGQGTTLTVSSAKTTPPSVYPLAPGSAAQTNSMVTLGCLVKGYFPEPVTVTWNSGSLSSGVHTFPAVLQSDLYTLSSSVTVPSSTWPSQTVTCNVAHPASSTKVDKKIVPRDCGCKPCICTVPEVSSVFIFPPKPKDVLTITLTPKVTCVVVDISKDDPEVQFSWFVDDVEVHTAQTKPREEQINSTFRSVSELPIMHQDWLNGKEFKCRVNSAAFPAPIEKTISKTKGRPKAPQVYTIPPPKEQMAKDKVSLTCMITNFFPEDITVEWQWNGQPAENYKNTQPIMDTDGSYFVYSKLNVQKSNWEAGNTFTCSVLHEGLHNHHTEKSLSHSPG
light: DIVMTQSQKFMSTSVRDRVSVTCKASQNVGTNVAWYQQKPGQSPKALIYSASYRYSGVPDRFTGSGSGTAFTLTISNVQSEDLAEYFCQQYNIYPLTFGAGTKLELKRADAAPTVSIFPPSSEQLTSGGASVVCFLNNFYPKDINVKWKIDGSERQNGVLNSWTDQDSKDSTYSMSSTLTLTKDEYERHNSYTCEATHKTSTSPIVKSFNRNEC
notes: Mouse monoclonal; variant form expressed in CHO cells; also called IBP4 (5B3.G9) V1; IBP4-5B3.G9
Consider B1, for which the Kd in assay [1] is 31 nM; in [2], 38.2 nM; in assay [3], 37 nM; in [4], 43.1 nM; in assay [5] it was 25.8 nM; in assay [6] it was 17.1 nM. Binding in [7] was characterised by a dissociation constant (Kd) of 22.3 nM. For the same molecule, the off-rate constant (koff) in [1] is 0.0041 s⁻¹; in [2], 0.00447 s⁻¹; in assay [3], 0.00419 s⁻¹; in assay [4], 0.00466 s⁻¹; in assay [5] it was 0.00404 s⁻¹; in [6], 0.0035 s⁻¹. This molecule also showed a koff in [7] of 0.00392 s⁻¹. Further, the kon in assay [1] was determined as 150000 M⁻¹ s⁻¹; in assay [2], 117000 M⁻¹ s⁻¹; in assay [3] it was 113000 M⁻¹ s⁻¹; in assay [4], 108000 M⁻¹ s⁻¹; in [5], 157000 M⁻¹ s⁻¹; in assay [6], 204000 M⁻¹ s⁻¹. In addition, the on-rate (kon) in [7] is 176000 M⁻¹ s⁻¹.

B2: anti-IBP4 antibody clone variant 7D6.G4 (antibody, mouse IgG1, kappa, V domains shown)
VH: EVQLQQSGPELVKPGASVKISCKASGYTFTDYYMNWVKQSHGKSLEWIGDINPNNGGSAYNQKFKGKATLTVDKSSSTAYMELRSLTSEDSAVYYCARWDGGFDYWGQGTTLTVSS
VL: DIVMTQSQKFMSTSVRDRVSVTCKASQNVGTNVAWYQQKPGQSPKALIYSASYRYSGVPDRFTGSGSGTDFTLTISNVQSEDLAEYFCQQYNSYPLTFGAGTKLELKR
notes: Mouse monoclonal; variant form; also called IBP4 (7D6.G4) V2; IBP4-7D6.G4
B2: the Kd in assay [1] worked out at 76 nM; in [8], 96.2 nM; in [9], 56.1 nM; in assay [10] it was 75.9 nM. Moreover, the koff in assay [1] turned out to be 0.013 s⁻¹; in assay [8] it was 0.0146 s⁻¹; in [9] it was 0.0119 s⁻¹; in assay [10], 0.0128 s⁻¹. Besides, the association rate constant (kon) is 180000 M⁻¹ s⁻¹ in [1], 152000 M⁻¹ s⁻¹ in assay [8], 211000 M⁻¹ s⁻¹ in assay [9] and 168000 M⁻¹ s⁻¹ in assay [10].

B3: anti-SHBG antibody clone variant 4G10.F8 (antibody, mouse IgG2a, kappa)
heavy: QVQLQQPGAELVKPGASVKMSCKASGYTFTGYWMHWVKQRPGQGLEWIGVIDPSTGYTTYNEKFKGKATLTVDTSSNTAYMQLSSLTSEDSAVYYCTREPLVTADFEYWGQGTTLTVSSAKTTAPSVYPLAPVCGDTTGSSVTLGCLVKGYFPEPVTLTWNSGSLSSGVHTFPAVLQSDLYTLSSSVTVTSSTWPSQSITCNVAHPASSTKVDKKIEPRGPTIKPCPPCKCPAPNLLGGPSVFIFPPKIKDVLMISLSPIVTCVVVDVSEDDPDVQISWFVNNVEVHTAQTQTHREDYNSTLRVVSALPIQHQDWMSGKEFKCKVNNKDLPAPIERTISKPKGSVRAPQVYVLPPPEEEMTKKQVTLTCMVTDFMPEDIYVEWTNNGKTELNYKNTEPVLDSDGSYFMYSKLRVEKKNWVERNSYSCSVVHEGLHNHHTTKSFSRTPG
light: DIVMTQSQKFMSTSVGDRISVTCKASQNVDTNVAWYRQKPGQSPKALIYSASYRFSGVPDRFTGSGSGTDFTLTISTFQSEDLAEYFCQQYDSYPYTFGGGTKLEIKRADAAPTVSIFPPSSEQLTSGGASVVCFLNNFYPKDINVKWKIDGSERQNGVLNSWTDQDSKDSTYSMSSTLTLTKDEYERHNSYTCEATHKTSTSPIVKSFNRNEC
notes: Mouse monoclonal; variant form expressed from a standard backbone in CHO cells; also called SHBG (4G10.F8) Anti SHBG v1; SHBG #6
Turning to B3, the Kd in [11] is 0.95 nM; in assay [12] it was 1.05 nM; in assay [13], 1.91 nM; in assay [14], 3.66 nM; in assay [15], 2 nM. Moreover, the off-rate (koff) in [11] was found to be 6.2e-05 s⁻¹; in assay [12], 4.57e-05 s⁻¹; in assay [13], 8.37e-05 s⁻¹; in [15] it was 9e-05 s⁻¹; in assay [16], 0.000145 s⁻¹. Moreover, the association rate constant (kon) in [11] was determined as 65000 M⁻¹ s⁻¹; in [12], 43700 M⁻¹ s⁻¹; in assay [13], 43900 M⁻¹ s⁻¹; in [14], 39600 M⁻¹ s⁻¹; in assay [15], 42000 M⁻¹ s⁻¹.

(Values after US20250101096A1 (SERA PROGNOSTICS, published 2025).)
